# B1: WNV E16 (monoclonal antibody produced by hybridoma clone E16 C4 E4, ATCC PTA-6050) (antibody, V domains shown)
# VH: QVQLQQSGSELMKPGASVQISCKATGYTFSDYWIEWVKQRPGHGLEWIGDILCGTGRTRYNEKLKAMATFTADTSSNTAFMQLSSLTSEDSAVYYCARSASYGDYADYWGHGTTLTVSS
# VL: DIVMTQSHKFMSTSVGDRVSITCKASQDVSTAVAWYQQKPGQSPKLLISWASTRHTGVPDRFTGSGSGTDYTLTISSVQAEDLALYYCQQHYTTPLTFGAGTKLELK
# Target: T1, WNV E protein on virions of WNV New York strain (lineage I) (West Nile virus (New York strain), UniProt Q9Q6P4 291-791)
# T1 sequence (looked up): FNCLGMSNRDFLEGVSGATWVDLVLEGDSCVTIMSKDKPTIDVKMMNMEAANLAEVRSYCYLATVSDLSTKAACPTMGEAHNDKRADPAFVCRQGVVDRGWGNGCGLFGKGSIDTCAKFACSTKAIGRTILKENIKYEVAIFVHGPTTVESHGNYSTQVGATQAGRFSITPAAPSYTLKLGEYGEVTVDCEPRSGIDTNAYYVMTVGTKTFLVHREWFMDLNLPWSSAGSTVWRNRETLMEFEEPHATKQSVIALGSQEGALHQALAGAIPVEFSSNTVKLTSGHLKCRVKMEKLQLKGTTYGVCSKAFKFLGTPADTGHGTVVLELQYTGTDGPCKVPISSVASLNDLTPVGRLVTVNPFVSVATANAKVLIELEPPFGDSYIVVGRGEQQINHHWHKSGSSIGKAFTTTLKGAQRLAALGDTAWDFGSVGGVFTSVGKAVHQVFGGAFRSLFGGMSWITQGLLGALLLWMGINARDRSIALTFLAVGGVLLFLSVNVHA
# Assay: cell-based or functional assay
binder,measurement,value
B1,"PRNT assay, potency against human γ-globulin preparation",~1000 fold

# Source: patent US20060067940A1 (WASHINGTON UNIVERSITY, published 2006)
